These are literature values, as cited in article PMC6518430.

One data set deals with IL-23R (Homo sapiens) (UniProt Q5VWK5).
The target in the next data set is IL-12Rβ1 (Homo sapiens) (UniProt P42701).

Sequence of IL-23 (Q9NPF7 20-189): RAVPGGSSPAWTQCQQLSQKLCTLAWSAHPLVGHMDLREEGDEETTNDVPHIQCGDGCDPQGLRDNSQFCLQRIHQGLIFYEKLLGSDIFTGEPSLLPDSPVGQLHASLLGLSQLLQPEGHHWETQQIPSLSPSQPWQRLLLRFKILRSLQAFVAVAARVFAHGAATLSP
Sequence of IL-23 (P29460 23-328, further chain): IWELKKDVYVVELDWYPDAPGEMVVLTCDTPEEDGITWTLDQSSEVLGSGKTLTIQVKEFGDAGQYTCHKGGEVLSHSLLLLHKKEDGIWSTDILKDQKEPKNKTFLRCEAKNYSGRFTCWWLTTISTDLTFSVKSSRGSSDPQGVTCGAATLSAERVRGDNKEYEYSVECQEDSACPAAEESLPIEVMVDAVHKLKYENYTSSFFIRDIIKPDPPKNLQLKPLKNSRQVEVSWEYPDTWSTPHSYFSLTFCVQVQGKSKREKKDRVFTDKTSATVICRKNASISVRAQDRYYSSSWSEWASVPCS
Sequence of IL-23R (Homo sapiens) (Q5VWK5 24-355): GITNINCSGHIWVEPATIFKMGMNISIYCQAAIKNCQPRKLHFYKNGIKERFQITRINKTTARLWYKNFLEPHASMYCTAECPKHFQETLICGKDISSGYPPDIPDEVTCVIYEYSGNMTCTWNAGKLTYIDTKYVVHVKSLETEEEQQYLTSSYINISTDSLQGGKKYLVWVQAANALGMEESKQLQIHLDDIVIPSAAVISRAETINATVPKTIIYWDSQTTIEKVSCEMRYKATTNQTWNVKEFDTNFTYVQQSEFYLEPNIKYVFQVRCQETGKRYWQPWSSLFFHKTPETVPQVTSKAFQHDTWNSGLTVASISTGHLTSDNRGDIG

Turning to IL-23 (from UniProt Q9NPF7), the Kd is 0.044 µM in the data set with IL-23R (Homo sapiens) and 2 µM in the data set with IL-12Rβ1 (Homo sapiens).

By Kd is commonly meant the free concentration of one partner at which half of the binding sites on the other are occupied at equilibrium, for simple one-to-one binding.
